In publication PMC3207120:

What was measured:
Settings in all cases: 100 mM Tris-HCl pH 7, 15 mM MgCl2, 37 °C
purified protein [1] = substrate: O=C(CO)[C@@H](O)[C@H](O)COP(=O)(O)O; assay: purified protein
purified protein [2] = substrate: O=P(O)(O)O[C@H]1O[C@H](CO)[C@H](O)[C@H](O)[C@H]1O; assay: purified protein
purified protein [3] = substrate: O=[N+]([O-])c1ccc(OP(=O)(O)O)cc1; assay: purified protein
steady-state kinetics = substrate: O=P(O)(O)OC[C@H]1OC(O)[C@H](O)[C@@H](O)[C@@H]1O; assay: steady-state kinetics; type: biochemical, Bacillus subtilis

B1: AraL (recombinant AraL-His6, pLG11) (Bacillus subtilis subsp. subtilis str. 168; V11M) (protein)
chain: MSPAGILIDLDGTVFRGNELIEGAREAIKTLRRMGKKIVFLSNRGNISRAMCRKKLLGAGIETDVNDIVLSSSVTAAFLKKHYRFSKVWVLGEQGLVDELRLAGVQNASEPKEADWLVISLHETLTYDDLNQAFQAAAGGARIIATNKDRSFPNEDGNAIDVAGMIGAIETSAQAKTELVVGKPSWLMAEAACTAMGLSAHECMIIGDSIESDIAMGKLYGMKSALVLTGSAKQGEQRLYTPDYVLDSIKDVTKLAEEGILI
B1 showed a Km (purified protein [1]) of 29.14 ± 4.87 mM, a kcat (purified protein [1]) of 2.75 ± 0.26 s⁻¹ and a kcat/Km (purified protein [1]) of 94.3 M⁻¹ s⁻¹. The Km (purified protein [2]) was 40.74 ± 6.03 mM, the kcat (purified protein [2]) was 4.28 ± 0.4 s⁻¹ and the kcat/Km (purified protein [2]) was 102 M⁻¹ s⁻¹. The Km (purified protein [3]) was 50.00 ± 23.32 mM, the kcat (purified protein [3]) was 0.012 ± 0.0006 s⁻¹ and the kcat/Km (purified protein [3]) was 0.24 M⁻¹ s⁻¹. It also gave a Km (steady-state kinetics) of 24.96 ± 4.08 mM, a kcat (steady-state kinetics) of 2.49 ± 0.26 s⁻¹ and a kcat/Km (steady-state kinetics) of 99.8 M⁻¹ s⁻¹.
